Test results published in publication PMC7526519.

Legend:
Assay in all cases: SPR
[1] = molecular target: little brown bat ACE2 ectodomain fused with mouse Fc (little brown bat)
[2] = molecular target: Malayan pangolin ACE2 ectodomain fused with mouse Fc (Malayan pangolin)
[3] = molecular target: alpaca ACE2 ectodomain fused with mouse Fc (alpaca)

| Substance | fold lower affinity than SARS-CoV-2 RBD to the same ACE2 [1] [fold] | fold lower affinity than SARS-CoV-2 RBD to the same ACE2 [2] [fold] | Kd [3] [µM] |
| --- | --- | --- | --- |
| SARS-CoV receptor binding domain (RBD), His-tagged (from UniProt P59594 306-527) (domain or fragment) | 40 | 4 |  |
| SARS-CoV-2 receptor binding domain (RBD), His-tagged (from UniProt P0DTC2 319-541) (domain or fragment) |  |  | 16.5 |
